According to patent US9988424 (DUKE UNIVERSITY, dated 2018):

Columns and labels:
C.1086 gp140 = target: T1, C.1086 gp140; assay: ELISA, OD405 at 10 ug/ml mAb
T1 construct: also called C.1086gp140C

A.9004SS V1V2 Tags [1] = target: T2, A.9004SS V1V2 Tags; assay: ELISA, OD405 at 10 ug/ml mAb
T2 Env construct: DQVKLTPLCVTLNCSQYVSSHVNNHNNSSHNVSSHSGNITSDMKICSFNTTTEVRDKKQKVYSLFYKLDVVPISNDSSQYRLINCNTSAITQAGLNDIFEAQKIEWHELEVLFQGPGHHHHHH

gp70 B.CaseA2 V1/V2 = target: T3, gp70 B.CaseA2 V1/V2 (HIV-1 V1V2 on murine leukemia virus gp70); assay: ELISA OD405nm, bar chart, antibody concentration not given
T3 construct: also called B.gp70CaseA2 V1/V2; gp70 B.CaseAV1V2
T3 chain: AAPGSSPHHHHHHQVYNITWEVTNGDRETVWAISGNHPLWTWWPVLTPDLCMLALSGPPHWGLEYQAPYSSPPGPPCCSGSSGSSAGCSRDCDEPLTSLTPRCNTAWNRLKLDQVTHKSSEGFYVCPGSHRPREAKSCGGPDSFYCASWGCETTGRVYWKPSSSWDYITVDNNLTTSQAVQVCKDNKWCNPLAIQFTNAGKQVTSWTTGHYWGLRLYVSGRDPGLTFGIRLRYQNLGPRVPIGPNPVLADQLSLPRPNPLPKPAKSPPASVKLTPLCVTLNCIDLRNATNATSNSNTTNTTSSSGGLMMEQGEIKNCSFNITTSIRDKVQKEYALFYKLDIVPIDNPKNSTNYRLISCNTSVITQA

A.Q23 V1V2 tags = A.Q23 V1V2 tags (HIV-1); assay: as above
G.con 140CF = target: T4, G.con 140CF; assay: as above
T4 construct: also called G.con gp140CF; G.con.env03 gp140CF

B.9021 gp140C = B.9021 gp140C (HIV-1); assay: as above
C.CAP206 gp140CF.12 = C.CAP206 gp140CF.12 (HIV-1); assay: as above
AE.con env03 40CF = target: T5, AE.con env03 40CF; assay: as above
T5 construct: also called AE.con gp140CF; AE.con.env03 gp140CF

MLV gp70 carrier protein = target: T6, MLV gp70 carrier protein; assay: as above
T6 construct: also called MuLV gp70
T6 carrier protein: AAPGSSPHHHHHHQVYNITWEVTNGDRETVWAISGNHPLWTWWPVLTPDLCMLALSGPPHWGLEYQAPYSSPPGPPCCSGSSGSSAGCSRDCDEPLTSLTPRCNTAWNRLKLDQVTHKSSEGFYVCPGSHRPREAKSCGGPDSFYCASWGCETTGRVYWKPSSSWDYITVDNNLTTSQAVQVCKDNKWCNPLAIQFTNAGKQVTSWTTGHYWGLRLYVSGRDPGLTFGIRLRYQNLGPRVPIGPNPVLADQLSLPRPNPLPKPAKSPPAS

Con 6 120 = target: T7, Con 6 120; assay: as above
T7 construct: also called Con 6 gp120

B.040 gp140C = assay: as above
SIV CPZ US-1 gp140CF = target: T8, SIV CPZ US-1 gp140CF (SIVcpz); assay: as above
T8 construct: also called US-1 SIVCPZ gp140CF
T8 chain: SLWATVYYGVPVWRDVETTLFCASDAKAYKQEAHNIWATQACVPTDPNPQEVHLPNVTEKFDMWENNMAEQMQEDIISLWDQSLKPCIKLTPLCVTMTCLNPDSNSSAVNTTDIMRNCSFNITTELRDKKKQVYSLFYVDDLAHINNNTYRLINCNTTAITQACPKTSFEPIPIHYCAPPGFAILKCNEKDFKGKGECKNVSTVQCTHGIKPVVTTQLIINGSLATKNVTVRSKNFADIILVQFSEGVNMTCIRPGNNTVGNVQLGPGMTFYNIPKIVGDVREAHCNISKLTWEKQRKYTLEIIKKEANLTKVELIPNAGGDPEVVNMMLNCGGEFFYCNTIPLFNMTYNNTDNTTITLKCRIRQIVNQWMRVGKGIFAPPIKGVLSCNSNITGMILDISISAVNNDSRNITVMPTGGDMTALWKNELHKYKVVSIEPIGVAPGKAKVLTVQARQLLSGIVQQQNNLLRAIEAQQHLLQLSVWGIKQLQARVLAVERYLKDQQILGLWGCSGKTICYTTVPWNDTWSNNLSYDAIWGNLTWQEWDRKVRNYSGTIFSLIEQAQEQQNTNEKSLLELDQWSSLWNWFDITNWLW

A.9004SS V1V2 Tags [2] = target: T9, A.9004SS V1V2 Tags; assay: as above
T9 V1V2 tags construct: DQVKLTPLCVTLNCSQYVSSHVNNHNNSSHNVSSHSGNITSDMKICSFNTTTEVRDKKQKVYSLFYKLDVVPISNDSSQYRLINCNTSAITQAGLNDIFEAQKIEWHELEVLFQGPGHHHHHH

B.CaseA V1/V2 Tags = assay: as above
AE.97CNG2XF gp140CF = target: T10, AE.97CNG2XF gp140CF (HIV-1); assay: as above
T10 construct: also called E.97CNGX2F gp140CF

B.62357 140C = target: T11, B.62357 140C; assay: as above
T11 construct: also called B.62357 gp140C

B.con env03 140CF = target: T12, B.con env03 140CF; assay: as above
T12 construct: also called B.con gp140CF

B.63521_V1V2 Tags = assay: as above
D.9009SA V1V2 Tags = assay: as above
B.63521_V1/V2 tags = assay: ELISA, OD405 at 10 ug/ml

B1: CH59 (antibody, V domains shown)
VH: EVQLVESGGGLVQPGRSLRLSCAASGFTFDDGAMHWVRQAPGKGLEWVSGISWNSNIIAYADSVKGRFTISRDNAKNSLYLEMNSLRVEDTALYYCAKDSPRGELPLNYWGQGTLVTVSS
VL: SYELTQPPSVSVSPGQTARITCSGDALPKNYAYWYQQKSGQAPVLVIYEDSKRPSGIPERFSGSSSGTMATLTISGAQVEDEADYYCYSTDSSGNHRVFGGGTKLTVL
notes: also called mAb CH59
B1: binds (C.1086 gp140); binds (A.9004SS V1V2 Tags [1]).

B2: CH59 reverted unmutated ancestor antibody (antibody, V domains shown)
VH: EVQLVESGGGLVQPGRSLRLSCAASGFTFDDYAMHWVRQAPGKGLEWVSGISWNSGSIGYADSVKGRFTISRDNAKNSLYLQMNSLRAEDTALYYCAKDSPRGELPFDYWGQGTLVTVSS
VL: SYELTQPPSVSVSPGQTARITCSGDALPKKYAYWYQQKSGQAPVLVIYEDSKRPSGIPERFSGSSSGTMATLTISGAQVEDEADYYCYSTDSSGNHRVFGGGTKLTVL
notes: also called CH59 RUA; CH59_RUA
B2: no binding (tested: not given) (gp70 B.CaseA2 V1/V2); no binding (tested: not given) (A.Q23 V1V2 tags); no binding (tested: not given) (G.con 140CF). B2: no binding (tested: not given) (B.9021 gp140C); no binding (tested: not given) (C.CAP206 gp140CF.12); no binding (tested: not given) (AE.con env03 40CF). B2: no binding (tested: not given) (MLV gp70 carrier protein); no binding (tested: not given) (Con 6 120); no binding (tested: not given) (B.040 gp140C). B2: no binding (tested: not given) (SIV CPZ US-1 gp140CF); no binding (tested: not given) (A.9004SS V1V2 Tags [2]); no binding (tested: not given) (B.CaseA V1/V2 Tags). B2: no binding (tested: not given) (AE.97CNG2XF gp140CF); no binding (tested: not given) (B.62357 140C); no binding (tested: not given) (B.con env03 140CF). B2: no binding (tested: not given) (B.63521_V1V2 Tags); no binding (tested: not given) (D.9009SA V1V2 Tags).

B3: PG16 reverted unmutated ancestor antibody (antibody, V domains shown)
VH: QVQLVESGGGVVQPGRSLRLSCAASGFTFSSYGMHWVRQAPGKGLEWVAVISYDGSNKYYADSVKGRFTISRDNSKNTLYLQMNSLRAEDTAVYYCAREAGGPIWHDDVKYYDFNDGYYYYYYMDVWGKGTTVTVSS
VL: QSALTQPASVSGSPGQSITISCTGTSSDVGSYNLVSWYQQHPGKAPKLMIYEVSKRPSGVSNRFSGSKSGNTASLTISGLQAEDEADYYCCSLTDRSHRIFGGGTKLTVL
notes: also called PG16 RUA; PG16_RUA
B3: no binding (tested: 10 ug/ml) (B.63521_V1/V2 tags).
